Measured values from US11046945B2, “Labeled glutaminase proteins, isolated glutaminase protein mutants, methods of use, and kit” (CORNELL UNIVERSITY, priority 2013, dated 2021).

Target: T1, GAC (Mus musculus, UniProt D3Z7P3)
T1 construct: plasmid (residues 72-603 for GAC, 72-674 for KGA); His-tag with thrombin cleavage site (N, cleaved yes); made in house; host or cells: pET23a vector
T1 sequence (D3Z7P3 72-603 isoform D3Z7P3-2): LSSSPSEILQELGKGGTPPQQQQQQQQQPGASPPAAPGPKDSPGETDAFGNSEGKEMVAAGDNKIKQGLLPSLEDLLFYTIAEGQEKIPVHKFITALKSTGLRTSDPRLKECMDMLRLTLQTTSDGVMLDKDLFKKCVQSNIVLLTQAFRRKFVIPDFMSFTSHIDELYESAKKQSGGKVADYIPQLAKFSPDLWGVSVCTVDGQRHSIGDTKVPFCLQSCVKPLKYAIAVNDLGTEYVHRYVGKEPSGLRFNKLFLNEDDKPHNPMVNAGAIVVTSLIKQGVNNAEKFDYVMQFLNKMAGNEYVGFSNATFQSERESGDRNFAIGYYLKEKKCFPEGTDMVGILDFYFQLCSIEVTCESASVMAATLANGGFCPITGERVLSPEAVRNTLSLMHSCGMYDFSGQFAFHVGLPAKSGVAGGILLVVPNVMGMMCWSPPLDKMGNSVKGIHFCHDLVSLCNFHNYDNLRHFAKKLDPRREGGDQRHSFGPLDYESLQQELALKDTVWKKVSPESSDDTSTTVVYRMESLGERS
Experiment: FRET assay of GAC tetramer formation (488-GAC donor, QSY 9-GAC acceptor)
Type: binding
Conditions: 200 nM QSY 9-labeled protein added to 20 nM 488-WT-GAC
Source text: A mouse kidney type glutaminase isoform 1 (KGA, NP_001074550.1, which is hereby incorporated by reference in its entirety (SEQ ID NO:7)) and isoform 2 (GAC, NP_001106854.1, which is hereby incorporated by reference in its entirety (SEQ ID NO:3)) plasmid (residues 72-603 for GAC, 72-674 for KGA) was cloned into a pET23a vector containing an N-terminal histidine (His)-tag and thrombin cleavage site. The expressed protein was initially purified using Co^2+ affinity beads (Clontech), after which the His-tag was cleaved with human thrombin (Haemetologic Technologies) overnight at 4° C. and subsequently purified by anion exchange (GE healthcare) and gel filtration chromatography. Purified GAC or KGA was stored in a high salt containing buffer (20 mM Tris-HCl pH 8.5, 500 mM NaCl, 1 mM NaN3) and stored at −80° C. following snap freezing in liquid N2 for long term use. For labeling recombinant GAC or KGA with small molecule probes, 1.5 mg of enzyme was exchanged to 50 mM HEPES pH 7.2, 100 mM NaCl using a PD10 desalting column (GE healthcare) and incubated with 50 μM (5-fold excess of enzyme) of either ALEXA FLUOR® 488 succinimidyl ester or QSY® 9 succinimidyl ester (Molecular Probes) for 1 hr at 4° C. After 1 hr, the labeling reaction was quenched with 150 mM Tris-HCl pH 8.5 and unreacted probe was separated from labeled-enzyme using a PD10 desalting column eluting labeled-GAC back into the high salt containing buffer.
Fluorescence experiments were performed using a Varian Carry Eclipse Fluorometer in the counting mode. Excitation and emission wavelengths were 490 and 520 nm, respectively. Experiments were all prepared as one-mL samples and stirred continuously at 20° C. in 50 mM Tris-Acetate pH 8.5, 0.1 mM ethylenediaminetetraacetic acid (EDTA). For WT GAC titrations in the absence of inorganic phosphate, 10 nM 488-GAC was equilibrated followed by injection of 25 μL of the appropriate concentration of QSY® 9-GAC and was allowed to equilibrate for 10 minutes at which point 75 μL of the appropriate concentration of unlabeled WT GAC was added to give a concentration that was ten-times that of labeled-GAC (i.e., 10-fold excess). For FRET experiments prepared for inorganic phosphate titrations, a similar protocol was followed whereby 10 nM of 488-GAC was equilibrated with 400 nM QSY® 9-GAC followed by injection of 100 μL of the appropriate concentration of K2HPO4 prepared in 50 mM Tris-Acetate (pH=8.5) 0.1 mM EDTA buffer. To test whether purified mutants can form oligomers with WT GAC, 200 nM QSY® 9-D391K-GAC or 200 nM QSY® 9-K316E-D391K-R459E was added to an equilibrated sample of 20 nM 488-WT GAC. Likewise, when assaying the effects of BPTES and 968 on oligomer formation, BPTES or 968 (10 μM or 25 μM, respectively) was added following equilibration of a sample of 200 nM of QSY® 9-WT GAC and 20 nM 488-WT GAC. Both BPTES and 968 were prepared in DMSO, and appropriate dilutions were made so that less than 2% (v/v) DMSO was added to an experimental sample.

Row | Molecule | EFRET max / energy transfer on addition to 488-GAC (WT)
1 | QSY® 9-GAC (WT): wild type recombinant mouse GAC labeled with the non-fluorescent acceptor QSY 9 succinimidyl ester (protein) LSSSPSEILQELGKGGTPPQQQQQQQQQPGASPPAAPGPKDSPGETDAFGNSEGKEMVAAGDNKIKQGLLPSLEDLLFYTIAEGQEKIPVHKFITALKSTGLRTSDPRLKECMDMLRLTLQTTSDGVMLDKDLFKKCVQSNIVLLTQAFRRKFVIPDFMSFTSHIDELYESAKKQSGGKVADYIPQLAKFSPDLWGVSVCTVDGQRHSIGDTKVPFCLQSCVKPLKYAIAVNDLGTEYVHRYVGKEPSGLRFNKLFLNEDDKPHNPMVNAGAIVVTSLIKQGVNNAEKFDYVMQFLNKMAGNEYVGFSNATFQSERESGDRNFAIGYYLKEKKCFPEGTDMVGILDFYFQLCSIEVTCESASVMAATLANGGFCPITGERVLSPEAVRNTLSLMHSCGMYDFSGQFAFHVGLPAKSGVAGGILLVVPNVMGMMCWSPPLDKMGNSVKGIHFCHDLVSLCNFHNYDNLRHFAKKLDPRREGGDQRHSFGPLDYESLQQELALKDTVWKKVSPESSDDTSTTVVYRMESLGERS | approximately 0.3
2 | QSY® 9-GAC (K316E, D391K, R459E): QSY 9-labeled monomer GAC mutant K316E/D391K/R459E (protein) LSSSPSEILQELGKGGTPPQQQQQQQQQPGASPPAAPGPKDSPGETDAFGNSEGKEMVAAGDNKIKQGLLPSLEDLLFYTIAEGQEKIPVHKFITALKSTGLRTSDPRLKECMDMLRLTLQTTSDGVMLDKDLFKKCVQSNIVLLTQAFRRKFVIPDFMSFTSHIDELYESAKKQSGGKVADYIPQLAKFSPDLWGVSVCTVDGQRHSIGDTKVPFCLQSCVKPLKYAIAVNDLGTEYVHRYVGEEPSGLRFNKLFLNEDDKPHNPMVNAGAIVVTSLIKQGVNNAEKFDYVMQFLNKMAGNEYVGFSNATFQSERESGKRNFAIGYYLKEKKCFPEGTDMVGILDFYFQLCSIEVTCESASVMAATLANGGFCPITGERVLSPEAVENTLSLMHSCGMYDFSGQFAFHVGLPAKSGVAGGILLVVPNVMGMMCWSPPLDKMGNSVKGIHFCHDLVSLCNFHNYDNLRHFAKKLDPRREGGDQRHSFGPLDYESLQQELALKDTVWKKVSPESSDDTSTTVVYRMESLGERS | no observable energy transfer
3 | QSY® 9-GAC (D391K): QSY 9-labeled constitutive GAC dimer mutant D391K (protein) LSSSPSEILQELGKGGTPPQQQQQQQQQPGASPPAAPGPKDSPGETDAFGNSEGKEMVAAGDNKIKQGLLPSLEDLLFYTIAEGQEKIPVHKFITALKSTGLRTSDPRLKECMDMLRLTLQTTSDGVMLDKDLFKKCVQSNIVLLTQAFRRKFVIPDFMSFTSHIDELYESAKKQSGGKVADYIPQLAKFSPDLWGVSVCTVDGQRHSIGDTKVPFCLQSCVKPLKYAIAVNDLGTEYVHRYVGKEPSGLRFNKLFLNEDDKPHNPMVNAGAIVVTSLIKQGVNNAEKFDYVMQFLNKMAGNEYVGFSNATFQSERESGKRNFAIGYYLKEKKCFPEGTDMVGILDFYFQLCSIEVTCESASVMAATLANGGFCPITGERVLSPEAVRNTLSLMHSCGMYDFSGQFAFHVGLPAKSGVAGGILLVVPNVMGMMCWSPPLDKMGNSVKGIHFCHDLVSLCNFHNYDNLRHFAKKLDPRREGGDQRHSFGPLDYESLQQELALKDTVWKKVSPESSDDTSTTVVYRMESLGERS | only a minor extent of FRET
